In publication PMC9107221 (Journal of Nanobiotechnology, 2022):

B16: Chikungunya/SL-CK1 E2 glycoprotein (natural protein)
chain: not shown
notes: E2 glycoprotein of Chikungunya virus strain SL-CK1, recombinant, about 40 kD on the blot; also called CHIKV E2; E2 protein; source: bought: Sino Biological

Key:
[1] = biological target: B16
TriNb-2E8 = biological target: T1, TriNb-2E8 (alpaca); assay: SPR; LSPR (OpenSPR, Nicoya): E2 protein immobilised on a COOH chip by EDC/NHS, antibodies flowed at 20 uL/min in PBS pH 7.4, 240 s binding, 360 s dissociation, One to One model; settings: both partners purified
T1 construct: VHH Nb-2E8, as the VHH of m1; flexible linker, printed as (GGGGS) x 3; VHH Nb-2E8, second copy, as the VHH of m1; VHH Nb-2E8, third copy, as the VHH of m1; also called trivalent Nb-2E8; homo-trimer Nb-2E8 fused to Fc; source: HEK293 cells, pcDNA 3.4, purified (protein A)

BiNb-2E8 = biological target: T2, BiNb-2E8 (alpaca); assay: as above; settings: both partners purified
T2 construct: VHH Nb-2E8, as the VHH of m1; flexible linker, printed as (GGGGS) x 3; VHH Nb-2E8, second copy, as the VHH of m1; Read here as two VHH in tandem on one chain; also called bivalent Nb-2E8; homo-dimer Nb-2E8 fused to Fc; source: HEK293 cells, pcDNA 3.4, purified (protein A)

TriNb-3C5 = biological target: T3, TriNb-3C5 (alpaca); assay: as above; settings: both partners purified
T3 construct: VHH Nb-3C5, as the VHH of m2; flexible linker, printed as (GGGGS) x 3; VHH Nb-3C5, second copy, as the VHH of m2; VHH Nb-3C5, third copy, as the VHH of m2; also called trivalent Nb-3C5; homo-trimer Nb-3C5 fused to Fc; source: HEK293 cells, pcDNA 3.4, purified (protein A)

BiNb-3C5 = biological target: T4, BiNb-3C5 (alpaca); assay: as above; settings: both partners purified
T4 construct: VHH Nb-3C5, as the VHH of m2; flexible linker, printed as (GGGGS) x 3; VHH Nb-3C5, second copy, as the VHH of m2; In the sandwich ELISA it was coupled with horseradish peroxidase (HRP Conjugation Kit); also called bivalent Nb-3C5; homo-dimer Nb-3C5 fused to Fc; source: HEK293 cells, pcDNA 3.4, purified (protein A)

P61-GEEPNYQEEW = biological target: T5, P61-GEEPNYQEEW (Chikungunya virus, SL-CK1); assay: ELISA; peptide ELISA: each 10-mer peptide coated at 1 ug/mL in carbonate buffer pH 9.6, 2 ug/mL antibodies, HRP anti-6xHis; settings: both partners purified
T5 construct: 10-mer of the Chikungunya/SL-CK1 E2 glycoprotein, domain C; printed as residues 331 to 340 in the results and as 301-310 in the discussion
T5 chain: GEEPNYQEEW

[2] = biological target: B16; assay: SPR; LSPR (OpenSPR, Nicoya): E2 protein immobilised on a COOH chip by EDC/NHS, antibodies flowed at 20 uL/min in PBS pH 7.4, 240 s binding, 360 s dissociation, One to One model; settings: both partners purified
[3] = biological target: T6, E2 glycoprotein of Chikungunya/human/China/GD134/2010, on virions and in infected Vero cells (Chikungunya virus …); assay: […]; antibodies 10 ug/mL, […]; settings: one partner purified
T6 construct: also called CHIKV virion; CHIKV virus

P10-LKIQVSLQIG = biological target: T7, P10-LKIQVSLQIG (Chikungunya virus, SL-CK1); assay: ELISA; peptide ELISA: each 10-mer peptide coated at 1 ug/mL in carbonate buffer pH 9.6, 2 ug/mL antibodies, HRP anti-6xHis; settings: both partners purified
T7 construct: 10-mer of the Chikungunya/SL-CK1 E2 glycoprotein, residues 46 to 55, domain A
T7 chain: LKIQVSLQIG

B1: 1H3 (Nb-1H3) (VHH)
VHH: AVQLVESGGGLVQAGGSLRLSCAASVHTFTMPTMGWFRQAPGKGRELVARFNANINSTYYGDSVKGRFTISRDFAKNTVYLHMSSLRPEDTAVYYCVADRGVVFGTREDLYDYWGQGTQVTVSS
Question: Does B1 bind [1]?
Answer: binds

B2: 4C1 (Nb-4C1) (VHH)
VHH: AVQLVESGGGLVQAGGSLRLSCAASVHTFTMPTMGWFRQAPEKGRELVARFNANINSTYYGDSVKGRFTISRDFAKNTVYLHMSSLRPEDTAVYYCVADRGVFFGTREDLYDYWGQGTQVTVSS
Question: Does B2 bind [1]?
Answer: binds

B3: 1D1 (Nb-1D1) (VHH)
VHH: AVQLVESGGGLVQAGGSLRLSCEASGHTFSSGTMGWFRQAPGMEREFVARINEKGDGTFYADSVKGRFTISRDYAKNTVYLQMNTLKPEDTAVYYCVADRGTVYGTREDLYDYWGQGTQVTVSS
Question: Does B3 bind [1]?
Answer: binds

B4: 4G10 (Nb-4G10) (VHH)
VHH: AVQLVESGGGLVQAGGSLRLSCEASGHTFNSGTMGWFRQAPGMEREFVARINEKGDGTFYADSVKGRFTISRDYTKNTVYLQMNTLKPEDTAVYYCVADRGTVYGTREDLYDYWGQGTQVTVSS
Question: Does B4 bind [1]?
Answer: binds

B5: 2F7 (Nb-2F7) (VHH)
VHH: AVAGESGGGVVQAGGSLRLSCAASGRTFSPYAMGWFRQAPGKERESVAAISWSAGDTYYADSVKGRFTISRDNAKNTVYLQMNSLKPEDTAVYYCASRNTYFSDSGYSNFYAYDYWGQGTQVTVSS
Question: Does B5 bind [1]?
Answer: binds

B6: 1H7 (Nb-1H7) (VHH)
VHH: AVQLVESGGGLVQAGGSLRISCLASGPPFTDYTMGWFRQAPGKEREFVARITNHGGGTHYADSVKGRFTISRDYATNTVYLQMNSLKPEDTAVYYCAADRGAVYGTREDLYDYWGQGTQVTVSS
Question: Does B6 bind [1]?
Answer: binds

B7: 4H6 (Nb-4H6) (VHH)
VHH: AVQLVESGGGLVQPGGSLGISCVASGPPFTDYTLGWFRQAPGKEREFVARITNHGGGTHYADSVKGRFTISREYATNTVYLQMNSLKPEDTAVYYCAADRGAVYGTREDLYDYWGQGTQVTVSS
Question: Does B7 bind [1]?
Answer: binds

B8: 1E1 (Nb-1E1) (VHH)
VHH: AVQLVESGGGLVETGESLRLSCAASGRTIENYHVGWFRQTSGPEREFLAATSRGNGISTIADSVKGRFTISRDNAKNTVYLQMNALKPEDTAVYICAADDANFVNYRSYRAWDNWGQGTQVTVSS
Question: Does B8 bind [1]?
Answer: binds

B9: 2B5 (Nb-2B5) (VHH)
VHH: AVQLVESGGGLVQAGGSLRLSCAASGRTIENYHVGWFRQTSGPEREFLAATSRGNGISTIADSVKGRFTISRDNAKNTVYLQMNALKPEDTAVYICAADDANFVNYRSYRAWDNWGQGTQVTVSS
Question: Does B9 bind [1]?
Answer: binds

B10: 2A3 (Nb-2A3) (VHH)
VHH: AVQLVESGGGLVPTGGSLRLSCTASGRTDNLYTVGWFRQAPGKERELIARITEKGGPTYYADSVKGRFSISTHKSKNAIYLQMNSVKPEDTAVYYCVADRGTVYGTREDLYDYWGQGTQVTVSS
Question: Does B10 bind [1]?
Answer: binds

B11: 1C11 (Nb-1C11) (VHH)
VHH: AVQLVESGGGLVLAGASLRLSCADSGSGRSLGTYGWFRQAPGKEREFVARISQRGGIDYTDSVKGRFTISRDNSKNTVNLQMTTLTPEDTAVYYCAADPDTVYSRSPALWKYWGQGTQVTVSS
Question: Does B11 bind [1]?
Answer: binds

B12: 4F8 (Nb-4F8) (VHH)
VHH: AVQLVESGGGTAQAGGPLRLSCKASGRSFSVGTMAWFRQVPGKEREFLVRDSQKGDGTVYAGSVEGRFTISRDYAKNTMDLQMNSLKPEDTAVYYCAADRGTVYGTREDLYDYWGQGTQVTVSS
Question: Does B12 bind [1]?
Answer: binds

B13: 1G6 (Nb-1G6) (VHH)
VHH: AVQLVESGGGLVQAGGSLRLSCAASGRTFSTYTMGWFRQAPGKEREFVARIIENTGNIYYADSVKGRFTISEDNAKNTLYLQMNNLKPEDTAVYYCVGDRGAVYGTRPDLYDHWGQGTQVTVSS
Question: Does B13 bind [1]?
Answer: binds

B14: 1A12 (Nb-1A12) (VHH)
VHH: AVQLVESGGGLVQAGGSLRLSCAASGRALTSGTMGWFRQAPGKEREFVARANVKGDGTFYADAVKGRFTISRDYAKNTVYLQMNNLKPEDTAVYFCAADRGTVYGTSEDLYDYWGQGTQVTVSS
Question: Does B14 bind [1]?
Answer: binds

B15: 4C7 (Nb-4C7) (VHH)
VHH: AVQLVESGGGLVQAGGSLRLSCATSGRTLGTYGWFRQAPGKEREFVARFLRNNGLTEYADSVKGRFTISRDDAKNTVELQMIMLKPEDTAVYYCTADPDAVYSRSPALWVYWGQGTQVTVSS
Question: Does B15 bind [1]?
Answer: binds

Question: How did the Kd (TriNb-2E8) turn out when B16 was run?
Answer: 4.52 nM

Question: What about the Kd (BiNb-2E8) of the same binder?
Answer: 2.59 nM

Question: What about the Kd (TriNb-3C5) of the same binder?
Answer: 10.4 nM

Question: And the Kd (BiNb-3C5)?
Answer: 20.7 nM

B17: 1F1 (Nb-1F1) (VHH)
VHH: AVQLVESGGGLVQAGGSLRLSCAASGRSFSAYTMAWFRQAPGKEREWMASIVRSGGPTYYADSVKDRFTISRENARNTVYLQMNSLKPEDTAVYYCAADLGWTYSRSPELFGSWGQGTQVTVSS
Question: Does B17 bind [1]?
Answer: binds

B18: 2B4 (Nb-2B4) (VHH)
VHH: AVQLVESGGGLVQAGGSLRLSCAASGRSSSAYTMAWFRQAPGKEREWMASIVRSGGPTYYADSVKDRFTISRENARNTVYLQMNSLKPEDTAVYYCAADLGWTYSRSPELFGSWGQGTQVTVSS
Question: Does B18 bind [1]?
Answer: binds

B19: MoNb-2E8 (VHH)
VHH: AVQLVESGGGLVQAGGSLRLSCAASGRSFSAYTMAWFRQAPGKEREWMASIVRSGGPTYYADSVKDRFTISRENARNTVYLQMNSLKPEDTAVYYCAADLGWTYSRSRELFGSWGQGTQVTVSS
notes: About 28 kDa with the His-SUMO tag; detected through SUMO (anti-SMT3) or the His tag; also called monovalent VHH antibody Nb-2E8; SUMO-tagged VHH; not shown: His6, N-terminal, kept; SUMO, N-terminal, kept
Question: What does the source list for B19?
Answer: binding result (P61-GEEPNYQEEW): binds; Kd [2]: 101 nM; binding result [3]: binds

B20: MoNb-3C5 (VHH)
VHH: AVQLVESGGGLVQAGGSLRLSCAASGRSFSAYTMAWFRQAPGKEREWMASIVRSGGPTYYADSVKDRFTISRENARNTAYLQMNSLKPEDTAVYYCAADLGWTYSRSPELFGSWGQGTQVTVSS
notes: About 28 kDa with the His-SUMO tag; detected through SUMO (anti-SMT3) or the His tag; also called monovalent VHH antibody Nb-3C5; SUMO-tagged VHH; not shown: His6, N-terminal, kept; SUMO, N-terminal, kept
Question: What does the source list for B20?
Answer: binding result (P10-LKIQVSLQIG): binds; Kd [2]: 368 nM; binding result [3]: binds

B21: 3E9 (Nb-3E9) (VHH)
VHH: AVQLVESGGGLVQAGGSLSLSCAASGRTFSAGTMGWFRQAPGKERELIARVIKNGGSTYYTDSVKGRFTIAADFAKSTVYLQMNSLKPEDTALYYCAADRGAVFGTRQELYDDWGQGTQVTVSS
Question: Does B21 bind [1]?
Answer: binds
